Values of other authors, collected in paper PMC3036710.

Legend:
Experiment in all cases: solid-phase binding
HMGB-1 (Homo sapiens) = HMGB-1 (Homo sapiens) (UniProt P09429)
[1] = biological target: CML-bovine serum albumin (Bos taurus) (UniProt P02769)
[2] = biological target: S100b calgranulin (Homo sapiens) (UniProt P04271)
Chain of UniProt P04271 (P04271 2-92): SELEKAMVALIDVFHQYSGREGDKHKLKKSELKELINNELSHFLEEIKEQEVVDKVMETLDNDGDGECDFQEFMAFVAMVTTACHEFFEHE

Chain of UniProt P09429 (P09429 whole entry): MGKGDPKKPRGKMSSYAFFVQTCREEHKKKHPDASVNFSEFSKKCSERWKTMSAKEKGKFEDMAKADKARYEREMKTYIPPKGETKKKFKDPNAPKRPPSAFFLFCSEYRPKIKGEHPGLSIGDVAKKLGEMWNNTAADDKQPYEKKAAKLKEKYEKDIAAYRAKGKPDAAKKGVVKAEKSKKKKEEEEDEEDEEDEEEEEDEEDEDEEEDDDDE
Chain of UniProt P02769 (P02769 25-607): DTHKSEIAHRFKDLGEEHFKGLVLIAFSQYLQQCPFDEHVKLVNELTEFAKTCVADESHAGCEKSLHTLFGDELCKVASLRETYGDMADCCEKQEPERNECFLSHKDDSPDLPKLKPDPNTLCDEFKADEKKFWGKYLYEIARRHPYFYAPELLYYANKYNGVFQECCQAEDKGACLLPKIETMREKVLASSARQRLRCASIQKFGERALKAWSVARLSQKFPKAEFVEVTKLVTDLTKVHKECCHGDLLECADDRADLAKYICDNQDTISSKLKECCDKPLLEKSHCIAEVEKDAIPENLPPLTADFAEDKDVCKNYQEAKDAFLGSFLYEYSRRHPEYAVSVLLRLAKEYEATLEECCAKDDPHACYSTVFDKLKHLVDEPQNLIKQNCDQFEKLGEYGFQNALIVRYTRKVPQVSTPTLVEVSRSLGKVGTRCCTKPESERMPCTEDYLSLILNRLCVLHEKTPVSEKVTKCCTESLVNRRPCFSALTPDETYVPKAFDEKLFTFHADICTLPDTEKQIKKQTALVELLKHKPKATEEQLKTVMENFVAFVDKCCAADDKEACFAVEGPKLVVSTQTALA

In the case of RAGE (from UniProt Q15109), the Kd (HMGB-1 (Homo sapiens)) is given as 0.64 nM, the Kd [1] is given as 0.43 nM and the Kd [2] is given as 0.45 nM.
